Laboratory results reported in paper PMC3913652 (PLoS ONE, 2014).

B1: dog albumin (natural protein, UniProt P49822 25-608, looked up)
chain: EAYKSEIAHRYNDLGEEHFRGLVLVAFSQYLQQCPFEDHVKLAKEVTEFAKACAAEESGANCDKSLHTLFGDKLCTVASLRDKYGDMADCCEKQEPDRNECFLAHKDDNPGFPPLVAPEPDALCAAFQDNEQLFLGKYLYEIARRHPYFYAPELLYYAQQYKGVFAECCQAADKAACLGPKIEALREKVLLSSAKERFKCASLQKFGDRAFKAWSVARLSQRFPKADFAEISKVVTDLTKVHKECCHGDLLECADDRADLAKYMCENQDSISTKLKECCDKPVLEKSQCLAEVERDELPGDLPSLAADFVEDKEVCKNYQEAKDVFLGTFLYEYARRHPEYSVSLLLRLAKEYEATLEKCCATDDPPTCYAKVLDEFKPLVDEPQNLVKTNCELFEKLGEYGFQNALLVRYTKKAPQVSTPTLVEVSRKLGKVGTKCCKKPESERMSCAEDFLSVVLNRLCVLHEKTPVSERVTKCCSESLVNRRPCFSGLEVDETYVPKEFNAETFTFHADLCTLPEAEKQVKKQTALVELLKHKPKATDEQLKTVMGDFGAFVEKCCAAENKEGCFSEEGPKLVAAAQAALV
B2: rat albumin (natural protein, UniProt P02770 25-608, looked up)
chain: EAHKSEIAHRFKDLGEQHFKGLVLIAFSQYLQKCPYEEHIKLVQEVTDFAKTCVADENAENCDKSIHTLFGDKLCAIPKLRDNYGELADCCAKQEPERNECFLQHKDDNPNLPPFQRPEAEAMCTSFQENPTSFLGHYLHEVARRHPYFYAPELLYYAEKYNEVLTQCCTESDKAACLTPKLDAVKEKALVAAVRQRMKCSSMQRFGERAFKAWAVARMSQRFPNAEFAEITKLATDVTKINKECCHGDLLECADDRAELAKYMCENQATISSKLQACCDKPVLQKSQCLAEIEHDNIPADLPSIAADFVEDKEVCKNYAEAKDVFLGTFLYEYSRRHPDYSVSLLLRLAKKYEATLEKCCAEGDPPACYGTVLAEFQPLVEEPKNLVKTNCELYEKLGEYGFQNAVLVRYTQKAPQVSTPTLVEAARNLGRVGTKCCTLPEAQRLPCVEDYLSAILNRLCVLHEKTPVSEKVTKCCSGSLVERRPCFSALTVDETYVPKEFKAETFTFHSDICTLPDKEKQIKKQTALAELVKHKPKATEDQLKTVMGDFAQFVDKCCKAADKDNCFATEGPNLVARSKEALA
B3: monkey albumin (natural protein, UniProt A2V9Z4 25-608, looked up)
chain: DTHKSEVAHRFKDLGEEHFKGLVLVAFSQYLQQCPFEEHVKLVNEVTEFAKTCVADESAENCDKSLHTLFGDKLCTVATLRETYGEMADCCAKQEPERNECFLQHKDDNPNLPPLVRPEVDVMCTAFHDNEATFLKKYLYEVARRHPYFYAPELLFFAARYKAAFAECCQAADKAACLLPKLDELRDEGKASSAKQRLKCASLQKFGDRAFKAWAVARLSQKFPKAEFAEVSKLVTDLTKVHTECCHGDLLECADDRADLAKYMCENQDSISSKLKECCDKPLLEKSHCLAEVENDEMPADLPSLAADYVESKDVCKNYAEAKDVFLGMFLYEYARRHPDYSVMLLLRLAKAYEATLEKCCAAADPHECYAKVFDEFQPLVEEPQNLVKQNCELFEQLGEYKFQNALLVRYTKKVPQVSTPTLVEVSRNLGKVGAKCCKLPEAKRMPCAEDYLSVVLNRLCVLHEKTPVSEKVTKCCTESLVNRRPCFSALELDEAYVPKAFNAETFTFHADMCTLSEKEKQVKKQTALVELVKHKPKATKEQLKGVMDNFAAFVEKCCKADDKEACFAEEGPKFVAASQAALA

Molecular target: T1, [Leu^14]exenatide-ABD (leucine substituted for methionine at position 14 (stands in the printed …, C-terminus -OH (Table 1)))
T1 construct: numbers count on: the exenatide peptide; Gly-Gly-Ser tri-peptide linker; 88 residue peptide; also called ABD fused exenatide; source: synthetic peptide (solid phase, reverse-phase HPLC)
Assay: SPR; BioRad ProteOn XPR36, GLC sensor chip, 25°C; albumins amine-coupled (2000-5000 RU), peptides flowed over at 3 concentrations in duplicate; 10 mM HEPES pH 7.4, 150 mM NaCl, 3 mM EDTA, 0.005% Tween-20, 0.2 mg/ml ovalbumin; highest concentration dissociated for 3 hours; 1:1 (Langmuir) model with correction for mass transfer
Conditions: both partners purified

Binder	Kd
B1	0.0981 nM
B2	0.0082 nM
B3	0.0402 nM
